{"source": "paper PMC12990707", "about": "“Multiple novel hepatocellular carcinoma signature genes are commonly controlled by the master pluripotency factor OCT4”", "binders": {"B1": {"name": "TK1 probe 1 (dsDNA)", "DNA 1": "GGGACCTGGCACGCACTAGGCGCTCTGCATGCCCACAGGAGTGCTCTAGACG", "DNA 2": "CGTCTAGAGCACTCCTGTGGGCATGCAGAGCGCCTAGTGCGTGCCAGGTCCC"}, "B2": {"name": "TK1 probe 3 (dsDNA)", "DNA 1": "CGGGCTAACACCTTCACACTTTATGCAGAAAGTAACAAGGAACCATTCTGAG", "DNA 2": "CTCAGAATGGTTCCTTGTTACTTTCTGCATAAAGTGTGAAGGTGTTAGCCCG"}, "B3": {"name": "TK1 probe 2 (dsDNA)", "DNA 1": "CCTGGCAGGGTCTACGGATATTATTAGCATAGTCAGGACTTCAATTTTCTTT", "DNA 2": "AAAGAAAATTGAAGTCCTGACTATGCTAATAATATCCGTAGACCCTGCCAGG"}}, "data": [{"molecular_target": "OCT4 (human, UniProt Q01860 1-360)", "sequence (Q01860 whole entry)": "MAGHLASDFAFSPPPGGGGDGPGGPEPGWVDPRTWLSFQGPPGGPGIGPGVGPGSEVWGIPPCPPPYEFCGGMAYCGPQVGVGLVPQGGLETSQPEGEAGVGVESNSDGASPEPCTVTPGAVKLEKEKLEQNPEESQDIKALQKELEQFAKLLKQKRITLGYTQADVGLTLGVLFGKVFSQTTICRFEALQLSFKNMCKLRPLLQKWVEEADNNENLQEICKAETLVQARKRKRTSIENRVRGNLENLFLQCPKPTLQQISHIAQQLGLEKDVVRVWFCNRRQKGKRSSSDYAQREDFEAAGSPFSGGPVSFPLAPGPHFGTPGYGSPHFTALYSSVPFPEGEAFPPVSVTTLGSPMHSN", "test": "EMSA; LightShift chemiluminescent EMSA kit (Thermo 20148) per manufacturer; buffer, salt, pH and temperature not stated", "settings": "protein: recombinant; label: 5' biotin on both strands; blunt", "values": [{"binder": "B1", "binding result": "binds"}, {"binder": "B2", "binding result": "binds"}, {"binder": "B3", "binding result": "binds"}]}]}
